Data on two molecules can be found in patent publication US20030082745A1 (published 2003).

The target in assay [1] is T1, pol κ76 (76 kDa alternatively spliced isoform product of POLK) (human, UniProt Q9UBT6 1-870).
T1 construct: Tested as a yeast two-hybrid fusion (FLAG-modified pGBT9 / pGAD424); also called 76-kDa pol κ isoform
T1 sequence: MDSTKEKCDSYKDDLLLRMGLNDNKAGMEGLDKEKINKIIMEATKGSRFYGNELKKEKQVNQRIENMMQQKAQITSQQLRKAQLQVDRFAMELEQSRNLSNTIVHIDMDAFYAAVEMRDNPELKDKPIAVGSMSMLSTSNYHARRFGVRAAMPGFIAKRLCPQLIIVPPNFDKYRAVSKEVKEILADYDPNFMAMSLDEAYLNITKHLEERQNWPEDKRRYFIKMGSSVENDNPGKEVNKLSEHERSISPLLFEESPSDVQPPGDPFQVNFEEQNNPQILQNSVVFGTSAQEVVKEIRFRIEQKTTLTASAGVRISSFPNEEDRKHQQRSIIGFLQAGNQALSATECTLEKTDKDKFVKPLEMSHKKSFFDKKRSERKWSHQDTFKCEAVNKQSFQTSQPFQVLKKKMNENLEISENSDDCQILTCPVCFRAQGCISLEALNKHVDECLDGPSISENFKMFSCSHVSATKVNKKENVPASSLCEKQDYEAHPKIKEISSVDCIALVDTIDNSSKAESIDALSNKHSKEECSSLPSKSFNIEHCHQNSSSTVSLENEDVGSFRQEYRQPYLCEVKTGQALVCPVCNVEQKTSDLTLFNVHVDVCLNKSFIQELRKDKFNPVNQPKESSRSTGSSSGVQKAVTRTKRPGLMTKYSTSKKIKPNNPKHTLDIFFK
The assay can be described thus: yeast two-hybrid.

Assay [2] deals with T2, pol κ (primary protein product of POLK; DNA polymerase κ) (human, UniProt Q9UBT6 1-870).
T2 construct: Tested as a yeast two-hybrid fusion (FLAG-modified pGBT9 / pGAD424); also called DINB1 product
T2 sequence (looked up): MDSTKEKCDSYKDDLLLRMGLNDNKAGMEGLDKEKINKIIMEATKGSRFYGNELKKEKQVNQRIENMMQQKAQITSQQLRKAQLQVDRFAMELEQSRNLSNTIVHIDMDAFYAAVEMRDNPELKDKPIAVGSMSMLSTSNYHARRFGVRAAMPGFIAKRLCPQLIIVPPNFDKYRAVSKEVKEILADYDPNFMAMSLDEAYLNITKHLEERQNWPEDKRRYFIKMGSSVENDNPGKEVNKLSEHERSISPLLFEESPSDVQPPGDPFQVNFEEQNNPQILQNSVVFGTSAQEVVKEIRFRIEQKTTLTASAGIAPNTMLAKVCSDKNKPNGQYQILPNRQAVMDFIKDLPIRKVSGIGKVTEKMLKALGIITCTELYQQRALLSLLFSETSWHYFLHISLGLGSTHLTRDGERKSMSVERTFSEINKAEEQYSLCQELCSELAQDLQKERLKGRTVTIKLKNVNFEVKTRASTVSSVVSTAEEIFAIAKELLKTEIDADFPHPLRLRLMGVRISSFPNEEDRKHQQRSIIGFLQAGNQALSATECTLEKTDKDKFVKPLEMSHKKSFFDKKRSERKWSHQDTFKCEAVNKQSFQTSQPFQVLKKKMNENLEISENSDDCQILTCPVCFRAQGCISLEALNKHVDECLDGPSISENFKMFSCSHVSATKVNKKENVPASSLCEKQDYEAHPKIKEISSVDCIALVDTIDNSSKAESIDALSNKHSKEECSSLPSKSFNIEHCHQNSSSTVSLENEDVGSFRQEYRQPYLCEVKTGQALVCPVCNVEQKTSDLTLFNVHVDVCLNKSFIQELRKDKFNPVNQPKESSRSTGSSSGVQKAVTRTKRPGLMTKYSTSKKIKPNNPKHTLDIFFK
The assay can be described thus: yeast two-hybrid.

B1: GPBPΔ26 (Goodpasture antigen binding protein alternatively spliced product deleted for 26 amino acid residues) (enzyme)
chain: MSDNQSWNSSGSEEDPETESGPPVERCGVLSKWTNYIHGWQDRWVVLKNNALSYYKSEDETEYGCRGSICLSKAVITPHDFDECRFDISVNDSVWYLRAQDPDHRQQWIDAIEQHKTESGYGSESSLRRHGSMVSLVSGASGYSATSTSSFKKGHSLREKLAEMETFRDILCRQVDTLQKYFDACADAVSKDELQRDKVVEDDEDDFPTTRSDGDFLHSTNGNKEKLFPHVTPKGINGIDFKGEAITFKATTAGILATLSHCIELMVKREDSWQKRLDKETEKKRRTEEAYKNAMTELKKKSHFGGPDYEEGPNSLINEEEFFDAVEAALDRQDKIEEQSQSEKVRLHWPTSLPSGDAFSSVGTHRFVQKVEEMVQNHMTYSLQDVGGDANWQLVVEEGEMKVYRREVEENGIVLDPLKATHAVKGVTGHEVCNYFWNVDVRNDWETTIENFHVVETLADNAIIIYQTHKRVWPASQRDVLYLSVIRKIPALTENDPETWIVCNFSVDHDSAPLNNRCVRAKINVAMICQTLVSPPEGNQEISRDNILCKITYVANVNPGGWAPASVLRAVAKREYPKFLKRFTSYVQEKTAGKPILF
notes: Splice isoform of the entry named (26 residues deleted); Two-hybrid construct not described; also called GPBPΔ26
As to B1, the binding result in assay [1] and in assay [2] was “no binding” each time.

B2: GPBP (Goodpasture antigen binding protein) (enzyme, UniProt Q9Y5P4 1-624, looked up)
chain: MSDNQSWNSSGSEEDPETESGPPVERCGVLSKWTNYIHGWQDRWVVLKNNALSYYKSEDETEYGCRGSICLSKAVITPHDFDECRFDISVNDSVWYLRAQDPDHRQQWIDAIEQHKTESGYGSESSLRRHGSMVSLVSGASGYSATSTSSFKKGHSLREKLAEMETFRDILCRQVDTLQKYFDACADAVSKDELQRDKVVEDDEDDFPTTRSDGDFLHSTNGNKEKLFPHVTPKGINGIDFKGEAITFKATTAGILATLSHCIELMVKREDSWQKRLDKETEKKRRTEEAYKNAMTELKKKSHFGGPDYEEGPNSLINEEEFFDAVEAALDRQDKIEEQSQSEKVRLHWPTSLPSGDAFSSVGTHRFVQKPYSRSSSMSSIDLVSASDDVHRFSSQVEEMVQNHMTYSLQDVGGDANWQLVVEEGEMKVYRREVEENGIVLDPLKATHAVKGVTGHEVCNYFWNVDVRNDWETTIENFHVVETLADNAIIIYQTHKRVWPASQRDVLYLSVIRKIPALTENDPETWIVCNFSVDHDSAPLNNRCVRAKINVAMICQTLVSPPEGNQEISRDNILCKITYVANVNPGGWAPASVLRAVAKREYPKFLKRFTSYVQEKTAGKPILF
notes: Two-hybrid construct (fusion domain, limits, species) is not described; also called product of COL4A3BP
As to B2, the binding result in assay [1] and in assay [2] was “no binding” in each case.
